Data as given in doi:10.1101/410217 (bioRxiv, 2018).

Target: T1, human parechovirus 3 (HPeV3) isolate A308/99 virion (Human parechovirus 3, isolate A308/99, strain)
T1 chain 1: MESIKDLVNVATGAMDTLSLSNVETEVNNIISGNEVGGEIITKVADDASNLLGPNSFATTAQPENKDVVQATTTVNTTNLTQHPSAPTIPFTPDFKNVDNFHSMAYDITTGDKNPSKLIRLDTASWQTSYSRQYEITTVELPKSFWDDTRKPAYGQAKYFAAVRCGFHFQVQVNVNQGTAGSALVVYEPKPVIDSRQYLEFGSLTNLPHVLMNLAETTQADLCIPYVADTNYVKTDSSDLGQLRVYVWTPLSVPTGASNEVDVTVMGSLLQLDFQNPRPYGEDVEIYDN
T1 chain 2: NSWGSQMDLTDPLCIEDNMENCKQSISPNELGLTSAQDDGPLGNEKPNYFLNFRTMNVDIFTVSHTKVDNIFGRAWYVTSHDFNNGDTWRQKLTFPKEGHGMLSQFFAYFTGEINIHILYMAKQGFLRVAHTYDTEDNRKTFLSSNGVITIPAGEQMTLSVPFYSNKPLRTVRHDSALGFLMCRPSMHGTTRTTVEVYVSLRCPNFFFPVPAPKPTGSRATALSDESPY
T1 chain 3: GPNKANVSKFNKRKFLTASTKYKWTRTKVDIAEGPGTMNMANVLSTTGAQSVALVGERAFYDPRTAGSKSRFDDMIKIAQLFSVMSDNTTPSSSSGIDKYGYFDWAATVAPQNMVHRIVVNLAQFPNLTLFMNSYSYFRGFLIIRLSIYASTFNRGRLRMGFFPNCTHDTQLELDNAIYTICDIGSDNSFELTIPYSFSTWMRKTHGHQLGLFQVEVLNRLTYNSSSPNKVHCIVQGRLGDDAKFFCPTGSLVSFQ
Experiment: cryo-EM structure

B1: Fab fragment of human monoclonal antibody AT12-015 (Fab, V domains shown)
VH: EVQLLESGGGLVQPGGSLRLSCAASGFTFSSYAMSWVRQAPGKGLEWVSAISGGGDSRYYADSVKGRFTISRDNSKNTLYLQMNSLGAEDTALYYCAKRLGRVAEYYFDYWGQGTLVTVSP
VL: DIQMTQSPSTLSASVGDRVTITCRTSQSISNWLAWYQQKPGKAPKLLIYQASTLENGVPSRFTGSGSGTEFSLTISSLQPDDFATYYCQQYNNYMALTFGGGTKVEIK
  stoichiometry N: 60 Fab per virion
